Target: T1, human Dual Ig domain containing cell adhesion molecule (DICAM) (human, UniProt Q9BRK3 20-442)
T1 construct: Assayed as endogenous DICAM of THP-1 cells and TH17 lymphocytes, and as human DICAM from vector pCMV6-neo-DICAM in NIH3T3 and NS0 cells; It stood on the cell surface in flow cytometry and in cell lysate in Western blot; also called limitrin; Matrix-remodeling-associated protein 8
T1 sequence: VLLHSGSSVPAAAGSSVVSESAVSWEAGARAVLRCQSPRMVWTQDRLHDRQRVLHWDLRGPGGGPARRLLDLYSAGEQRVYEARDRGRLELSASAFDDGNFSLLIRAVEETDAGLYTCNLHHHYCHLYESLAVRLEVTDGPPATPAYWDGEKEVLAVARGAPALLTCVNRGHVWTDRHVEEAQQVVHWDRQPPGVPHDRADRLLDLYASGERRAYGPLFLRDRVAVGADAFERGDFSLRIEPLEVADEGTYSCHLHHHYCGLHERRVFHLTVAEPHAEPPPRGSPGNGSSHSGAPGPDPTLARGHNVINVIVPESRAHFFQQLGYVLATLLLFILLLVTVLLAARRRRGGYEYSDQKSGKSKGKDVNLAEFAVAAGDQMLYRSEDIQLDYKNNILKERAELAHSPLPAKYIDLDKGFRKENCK
Assay: Western blot (Table III)
Procedure: THP-1 cells express DICAM as determined by qPCR and confirmed by WB (see Jung et al., Journal of Bone and Mineral Research, Vol. 27, No. 9, pp 2024-2034, 2012). THP-1 cell lysate (30 μg) were loaded on 12% SDS-PAGE gel and electrophoresed for 90 min at 100V and transferred to PVDF membranes. Hybridoma from clone 3C2, 2C11, 2H12, 9E9 and 1B2 (N-terminal DICAM epitope 57-71) or from clone 7F8, 1D9, 4B8 and 1D4 (C-terminal DICAM epitope 372-385) were incubated at 4° C. (50 μg/ml) for 12 h. Secondary antibody is goat anti-mouse pan-IgG coupled to HRP (1/2000 dilution). Actin is shown as a loading control. N=4
Characterization of anti-DICAM antibodies by Western blot THP-1 and NIH3T3 cells transfected with human DICAM-encoding vector (pCMV6-neo) or with empty vector (pCMV6-neo) cell lysate ([…]) were loaded on 12% SDS-PAGE gel and electrophoresed for 90 min at 100V and transferred to PVDF membranes. […] N=4 by standard SDS-PAGE and immunoblots were analyzed with anti-DICAM (Goat; 1:100 dilution; sc-163102; Santa Cruz Biotechnology®); horseradish peroxidase-conjugated anti-goat (1:1,000 dilution; P00448; DakoCytomation®) and the ECL system (Amersham Biosciences®) were used to detect specific binding, and anti-actin (1:5,000 dilution; AC-15; MP Biomedicals®) served as a loading control. […]

B1: anti-DICAM monoclonal antibody clone 9E9 (antibody, mouse IgG1, V domains shown)
VH: EVQLVESGGGLVKPGGSLKLSCAASGFTFISYAMSWVRQTPEKRLEWVATISSGGSYTYYPHSVKGRFTISRDNARNTLYLQMSSLRSEDTAMYYCARLDGPSYAMDYWGQGTSVTVS
VL: QIVLTQSPAIMSAFLGEEITLTCSASSSVSYMHWYQQKSGTSPKLLIYSTSNLASGVPSRFSGSGSGTFYSLTISSVEAEDAADYYCHQWSSYRTFGGGTKLEIKR
notes: Mouse hybridoma antibody, murine IgG1 heavy chain and kappa light chain; also called mAb clone 9E9; hybridoma clone 9E9
  binding result: binds

Source: patent publication US20180057590A1 (VAL CHUM LIMITED PARTNERSHIP, published 2018)
